± gives the uncertainty stated by the source.
Assay: self-splicing fitness, log relative to wild type (ln ratio); higher = more splicing; Tetrahymena group I intron in knt gene, E. coli kanamycin selection, DiMSum; sequences stand for … in CUCUCU…GGAGGGAAAAGUUAUCAGGCAUGCACCUGGUAGCUAGUCUUUAAACCAAUAGAUUGCAUCGGUUUAAAAGGCAAGACCGUCAAAUUGCGGGAAAGGGGUCAACAGCCGUUCAGUACCAAGUCUCAGGGGAAACUUUGAGAUGGCCUUGCAAAGGGUAUGGUAAUAAGCUGACGGACAUGGUCCUAACCACGCAGCCAAGUCCUAAGUCAACAGAUCUUCUGUUGAUAUGGAUGCAGUUCACAGACUAAAUGUCGGUCGGGGAAGAUGUAUUCUUCUCAUAAGAUAUAGUCGGACCUCUCCUUAAUGGGAGCUAGCGGAUGAAGUGAUGCAACACUGGAGCCGCUGGGAACUAAUUUGUAUGCGAAAGUAUAUUGAUUAGUUUUGGAGUACUCGUGGUCG
Method in brief: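 A randomised library covering all eight P1ex-region intron nucleotides was built with the intron in the knt kanamycin-resistance gene on pET-22b(+) and held in E. coli BL21(DE3). Cells were grown overnight at 37°C or 30°C on LB agar, with or without 25 μg/mL kanamycin, plus 100 μg/mL carbenicillin, 50 μM IPTG and 0.2% rhamnose, and pooled colonies were amplicon-sequenced on an Illumina HiSeq 2500. DiMSum fitness is the error-weighted combination of wild-type-normalised replicate fold changes, kanamycin versus none.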

| Sequence | self-splicing fitness (ln) (30 °C) | self-splicing fitness (ln) (37 °C) |
| --- | --- | --- |
| UCGAAGCAAUAUUACGCGUG | -0.488 ± 0.07 | -0.256 ± 0.078 |
| UCGAAGCAAUAUUACGCUAA | – | -2.07 ± 0.36 |
| UCGAAGCAAUAUUACGCUCG | -2.53 ± 0.31 | -1.39 ± 0.27 |
| UCGAAGCAAUAUUACGGCCA | -1.64 ± 0.16 | 0.195 ± 0.14 |
| UCGAAGCAAUAUUACGGGCC | -2.98 ± 0.38 | -0.79 ± 0.33 |
| UCGAAGCAAUAUUACGGUCG | -0.668 ± 0.079 | 0.0856 ± 0.11 |
| UCGAAGCAAUAUUACGGUUC | -4.34 ± 0.34 | -2.79 ± 0.32 |
| UCGAAGCAAUAUUACGUAAG | -1.85 ± 0.13 | -0.0359 ± 0.13 |
| UCGAAGCAAUAUUACGUACA | -0.691 ± 0.13 | 0.0696 ± 0.11 |
| UCGAAGCAAUAUUACGUAUG | -2.78 ± 0.16 | -1.33 ± 0.15 |
| UCGAAGCAAUAUUACGUCCU | -0.664 ± 0.12 | -0.253 ± 0.15 |
| UCGAAGCAAUAUUACGUGAC | -2.44 ± 0.19 | -2.88 ± 0.21 |
| UCGAAGCAAUAUUACGUUAA | -2.99 ± 0.19 | -0.482 ± 0.14 |
| UCGAAGCAAUAUUACGUUUA | -3.07 ± 0.45 | -0.87 ± 0.29 |
| UCGCAGCAAUAUUACGAACC | -3.4 ± 0.4 | -2.44 ± 0.41 |
| UCGCAGCAAUAUUACGACCG | -0.544 ± 0.11 | -0.235 ± 0.15 |
| UCGCAGCAAUAUUACGACUC | -3.5 ± 0.27 | -2.32 ± 0.27 |
| UCGCAGCAAUAUUACGAGAG | -4.55 ± 0.36 | -2.39 ± 0.18 |
| UCGCAGCAAUAUUACGCACG | -2.26 ± 0.16 | -0.255 ± 0.15 |
| UCGCAGCAAUAUUACGGAUG | -1.44 ± 0.13 | -2.55 ± 0.16 |
| UCGCAGCAAUAUUACGGAUU | -3.46 ± 0.17 | -2.51 ± 0.18 |
| UCGCAGCAAUAUUACGGCGA | -3.35 ± 0.13 | -3 ± 0.17 |
| UCGCAGCAAUAUUACGGCGU | -2.06 ± 0.16 | 0.251 ± 0.11 |
| UCGCAGCAAUAUUACGGUAC | – | -2.21 ± 0.31 |
| UCGCAGCAAUAUUACGUAUC | -3.82 ± 0.37 | -2.15 ± 0.27 |
| UCGCAGCAAUAUUACGUCAA | -2.69 ± 0.15 | -0.094 ± 0.11 |

| Sequence | self-splicing fitness (ln) (30 °C) | self-splicing fitness (ln) (37 °C) |
| --- | --- | --- |
| UCGCAGCAAUAUUACGUCGC | -3.2 ± 0.37 | – |
| UCGCAGCAAUAUUACGUCGG | -2.74 ± 0.18 | -1.79 ± 0.19 |
| UCGCAGCAAUAUUACGUCUA | -0.18 ± 0.11 | 0.716 ± 0.12 |
| UCGCAGCAAUAUUACGUGGA | -1.93 ± 0.11 | -1.57 ± 0.084 |
| UCGCAGCAAUAUUACGUGUA | -1.19 ± 0.082 | -0.901 ± 0.083 |
| UCGCAGCAAUAUUACGUUUU | -4.52 ± 0.36 | -2.9 ± 0.23 |
| UCGGAGCAAUAUUACGAAGG | -2.58 ± 0.45 | – |
| UCGGAGCAAUAUUACGACGA | -1.41 ± 0.14 | -1.32 ± 0.16 |
| UCGGAGCAAUAUUACGAGCA | -2.39 ± 0.23 | -1.51 ± 0.27 |
| UCGGAGCAAUAUUACGAUGG | -3.2 ± 0.22 | -2.1 ± 0.25 |
| UCGGAGCAAUAUUACGCGUG | 0.284 ± 0.17 | -0.281 ± 0.17 |
| UCGGAGCAAUAUUACGCUAG | -1.87 ± 0.21 | -2.38 ± 0.27 |
| UCGGAGCAAUAUUACGGCCA | -3.25 ± 0.44 | -1.63 ± 0.35 |
| UCGGAGCAAUAUUACGGCUC | -1.81 ± 0.29 | – |
| UCGGAGCAAUAUUACGGUUG | -3.25 ± 0.24 | -2.48 ± 0.33 |
| UCGGAGCAAUAUUACGUACG | -1.21 ± 0.14 | -0.867 ± 0.18 |
| UCGGAGCAAUAUUACGUCUA | -2.52 ± 0.14 | -1.89 ± 0.14 |
| UCGGAGCAAUAUUACGUGUC | – | -2.26 ± 0.29 |
| UCGGAGCAAUAUUACGUGUG | -3.08 ± 0.18 | -1.63 ± 0.1 |
| UCGGAGCAAUAUUACGUUCU | -3.17 ± 0.2 | -1.41 ± 0.4 |
| UCGUAGCAAUAUUACGAAAC | – | -2.91 ± 0.38 |
| UCGUAGCAAUAUUACGAACG | -2.5 ± 0.21 | -1.94 ± 0.23 |
| UCGUAGCAAUAUUACGAAGA | -3.36 ± 0.5 | – |
| UCGUAGCAAUAUUACGAAUA | – | -2.55 ± 0.27 |
| UCGUAGCAAUAUUACGACGU | -3.04 ± 0.28 | -1.58 ± 0.17 |

Reference: the supplement of paper PMC7877785
